Measured values taken from PMC7555777, “Cataract-Associated New Mutants S175G/H181Q of βΒ2-Crystallin and P24S/S31G of γD-Crystallin Are Involved in Protein Aggregation by Structural Changes” (International Journal of Molecular Sciences, 2020).

Molecular target: the molecule itself
Assay: SEC; Superdex 200 HR 10/30 in PBS; 450 µg/100 µL protein loaded; 0.5 mL/min; UV 280 nm; markers albumin (66.4 kDa) and α-lactalbumin (14.2 kDa); dimer in rapid equilibrium with monomer

Protein	binding result
wild-type βB2-crystallin (natural protein, human, human beta-crystallin B2 (CRBB2 cDNA from a human cDNA library in pGEX-4t-1); Residues left by the vector after the thrombin cut are not described; also called WT βB2-crystallin; Beta-crystallin B2; source: E. coli BL21 (DE3), purified (glutathione-agarose, GST cut off with thrombin)) ASDHQTQAGKPQSLNPKIIIFEQENFQGHSHELNGPCPNLKETGVEKAGSVLVQAGPWVGYEQANCKGEQFVFEKGEYPRWDSWTSSRRTDSLSSLRPIKVDSQEHKIILYENPNFTGKKMEIIDDDVPSFHAHGYQEKVSSVRVQSGTWVGYQYPGYRGLQYLLEKGDYKDSSDFGAPHPQVQSVRRIRDMQWHQRGAFHPSN	binds
S175G/H181Q mutant βB2-crystallin (natural protein, human, human beta-crystallin B2 (CRBB2 cDNA in pGEX-4t-1) with the two changes found in cataract lenses, made by site-directed mutagenesis; Residues left by the vector after the thrombin cut are not described; also called S175G/H181Q βB2-crystallin; CRBB2 S175G/H181Q; source: E. coli BL21 (DE3), purified (glutathione-agarose, GST cut off with thrombin)) ASDHQTQAGKPQSLNPKIIIFEQENFQGHSHELNGPCPNLKETGVEKAGSVLVQAGPWVGYEQANCKGEQFVFEKGEYPRWDSWTSSRRTDSLSSLRPIKVDSQEHKIILYENPNFTGKKMEIIDDDVPSFHAHGYQEKVSSVRVQSGTWVGYQYPGYRGLQYLLEKGDYKDSGDFGAPQPQVQSVRRIRDMQWHQRGAFHPSN	binds
